Patent US20110111406A1 (published 2011)

Experiments:
[1] = target: T1, human IL-6 (Toray) (human, UniProt P05231 30-212); experiment: Biacore T100, antibody captured on protein A/G, human IL-6 as analyte, 37C; ratio of KD at pH 5.5 to pH 7.4
T1 construct: also called human interleukin-6
Method: (§1) Kinetic analysis of antigen-antibody reactions at pH 5.5 and pH 7.4 was carried out using Biacore T100 (GE Healthcare) for the three types of antibodies prepared as mentioned above: Anti-IL6 wild type, Anti-IL6 clone 1, and Anti-IL-6 clone 2 (buffer: DPBS(−) (pH 7.4 or pH 5.5), 150 mM NaCl). The antibodies were bound to a sensor chip on which recomb-protein A/G (Pierce) was immobilized by amine coupling, and then human IL-6 (Toray) adjusted to an appropriate concentration was injected on the chip as an analyte. All the measurements were carried out at 37° C. Association rate constants kₐ (1/Ms) and dissociation rate constants kd (1/s) were calculated using Biacore T100 Evaluation Software (GE Healthcare), and dissociation constants KD (M) were calculated based on those values (Table 14). Furthermore, the ratio of affinity at pH 5.5 and pH 7.4 was calculated for each clone to evaluate the pH-dependent binding.

[2] = target: T1, human IL-6 (Toray); experiment: Biacore T100, human IL-6 as analyte; KD(pH 5.5)/KD(pH 7.4) compared with Anti-IL6 wild type
Method: as §1

B1: Anti-IL-6 clone 2 (antibody, human IgG1, kappa, V domains shown)
VH: EVQLVESGGKLLKPGGSLKLSCAASGFTFSSHAMSWFRQSPEKRLEWVAEISSGGSYTYHPHTVTGRFTISRDNAKNTLYLEMSSLRSEDTAMYYCARGLWGHYALDYWGQGTSVTVSS
VL: QIVLIQSPAIMSASPGEKVTMTCSASSSVSYMYWYQQKPGSSPRLLIYDTSHHASGVPVRFSGSGSGTSYSLTISRMEAEDAATYYCQHWSGHPYTFGGGTKLEIKR
notes: H chain (c1) and L chain (c2)
B1 was tested. Which “KD(pH 5.5)/KD(pH 7.4)” value [1] did it give?
The value was 13.5.

What about the “pH-dependent binding ability relative to WT” value [2] of the same binder?
The value was 10 times.
